Measured values as given in article PMC6005765 (Bioorganic & medicinal chemistry letters, 2018).
Starred links: 1 amine or outer side, 2 acyl side, 3 side chain; linkers in the order of their positions; H or OH if unused. Non-standard residues stand in square brackets, D forms with d. Residues, ends and D or L forms follow the SMILES beside them. No end group written: not given here. Phe(2-(4-CF3-phenyl)) = O=C([C@H](Cc1ccccc1-c1ccc(C(F)(F)F)cc1)N[*:1])[*:2]; Phe(2-(2-methyl-1-propenyl)) = CC(C)=Cc1ccccc1C[C@H](N[*:1])C(=O)[*:2]; Phe(2-(4-MeO-phenyl)) = COc1ccc(-c2ccccc2C[C@H](N[*:1])C(=O)[*:2])cc1; Phe(2-(4-Cl-phenyl)) = O=C([C@H](Cc1ccccc1-c1ccc(Cl)cc1)N[*:1])[*:2]; Phe(2-(4-F-phenyl)) = O=C([C@H](Cc1ccccc1-c1ccc(F)cc1)N[*:1])[*:2]; Phe(3-(3-thienyl)) = O=C([C@H](Cc1cccc(-c2ccsc2)c1)N[*:1])[*:2]; Phe(4-(3-thienyl)) = O=C([C@H](Cc1ccc(-c2ccsc2)cc1)N[*:1])[*:2]; Phe(2-(3-thienyl)) = O=C([C@H](Cc1ccccc1-c1ccsc1)N[*:1])[*:2]; Phe(3-vinyl) = C=Cc1cccc(C[C@H](N[*:1])C(=O)[*:2])c1; Phe(4-vinyl) = C=Cc1ccc(C[C@H](N[*:1])C(=O)[*:2])cc1; Phe(2-vinyl) = C=Cc1ccccc1C[C@H](N[*:1])C(=O)[*:2]; Phe(3-Ph) = N[C@@H](Cc1cccc(-c2ccccc2)c1)C(=O)O; Phe(2-Ph) = N[C@@H](Cc1ccccc1-c1ccccc1)C(=O)O; Bip = N[C@@H](Cc1ccc(-c2ccccc2)cc1)C(=O)O; Dmt = Cc1cc(O)cc(C)c1C[C@H](N)C(=O)O; dNMeA = CN[C@H](C)C(=O)O

Assays:
[1] = molecular target: μ opioid receptor (UniProt P35372)
[2] = molecular target: μ opioid receptor (MOP) (Homo sapiens, UniProt P35372); assay type: binding; settings: for MOP IC50: [125I]-DAMGO competition, HEK293 membranes
μ opioid receptor (MOP), sequence (P35372 whole entry, species assumed): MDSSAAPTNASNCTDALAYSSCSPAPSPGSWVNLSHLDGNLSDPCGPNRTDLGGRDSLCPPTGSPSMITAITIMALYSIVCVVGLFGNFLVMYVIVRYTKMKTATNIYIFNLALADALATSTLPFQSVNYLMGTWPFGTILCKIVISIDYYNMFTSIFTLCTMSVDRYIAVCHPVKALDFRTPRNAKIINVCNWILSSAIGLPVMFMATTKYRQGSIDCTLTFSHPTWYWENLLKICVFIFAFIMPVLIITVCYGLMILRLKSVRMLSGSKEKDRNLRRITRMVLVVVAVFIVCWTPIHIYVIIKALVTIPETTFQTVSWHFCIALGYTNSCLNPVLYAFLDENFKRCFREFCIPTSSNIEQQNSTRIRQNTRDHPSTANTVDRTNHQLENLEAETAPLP

[3] = molecular target: δ opioid receptor (DOP) (Homo sapiens, UniProt P41143); assay type: binding
[4] = test system: guinea pig ileum (GPI), MOP; settings: for Functional character in GPI assay: in vitro
[5] = molecular target: δ opioid receptor (UniProt P41143)
[6] = molecular target: δ opioid receptor (UniProt P41143); remark: listed apart in the source
[7] = molecular target: δ opioid receptor (UniProt P41143); assay: radioligand binding
[8] = molecular target: μ opioid receptor (UniProt P35372); assay: radioligand binding

| Molecule | IC50 in the guinea pig ileum (GPI) assay [1] | IC50 in the mouse vas deferens (MVD) assay [6] | IC50 [7] | IC50 [8] | also measured |
| --- | --- | --- | --- | --- | --- |
| Deltorphin II (peptide) | 854 nM | – | – | – | – |
| Cc1cc(O)cc(C)c1C[C@H](N)C(=O)N[C@H](CCCNC(=N)N)C(=O)N[C@@H](Cc1ccccc1-c1ccc(Cl)cc1)C(=O)NCC(N)=O [Compound 13, Dmt-D-Arg-Phe(2-(4-Cl-phenyl))-Gly-NH2] | – | – | – | – | IC50 [2]: 0.35 ± 0.06 nM; Selectivity IC50δ/IC50μ ([2]; ratio DOP IC50 / MOP IC50): 989; IC50 [3]: 346 ± 10 nM; IC50 ([4]; read-out: IC50 (GPI), agonist potency): 2.39 ± 0.09 nM |
| Cc1cc(O)cc(C)c1C[C@H](N)C(=O)N[C@H](CCCNC(=N)N)C(=O)N[C@@H](Cc1ccc(-c2ccsc2)cc1)C(=O)NCC(N)=O [Compound 4, Dmt-D-Arg-Phe(4-(3-thienyl))-Gly-NH2] | – | – | – | – | Functional character in GPI assay [4]: μ-opioid antagonism |
| DAMGO (peptide) | 28.3 nM | – | – | – | EPAC DOP EC50 (EPAC cAMP BRET-based biosensor assay) [5]: 49 nM |
| Cc1cc(O)cc(C)c1C[C@H](N)C(=O)N[C@H](C)C(=O)N[C@@H](Cc1ccccc1-c1ccsc1)C(=O)NCC(N)=O [Compound 16, Dmt-D-Ala-Phe(2-(3-thienyl))-Gly-NH2] | – | – | – | – | MOP IC50 [2]: poor affinity for MOP |
| C=Cc1ccccc1C[C@H](NC(=O)[C@@H](CCCNC(=N)N)NC(=O)[C@@H](N)Cc1c(C)cc(O)cc1C)C(=O)NCC(N)=O [Compound 9, Dmt-D-Arg-Phe(2-vinyl)-Gly-NH2] | – | – | – | – | MOP IC50 [2]: subnanomolar binding affinity |
| Cc1cc(O)cc(C)c1C[C@H](N)C(=O)N[C@H](CCCNC(=N)N)C(=O)N[C@@H](Cc1ccc(-c2ccccc2)cc1)C(=O)NCC(N)=O [Compound 1, Dmt-D-Arg-Phe(4-phenyl)-Gly-NH2] (H-[Dmt][dR][Bip]G-NH2) | – | – | – | – | Functional character in GPI assay [4]: μ-opioid antagonism |
| [Dmt][dR][Phe(2-(4-Cl-phenyl))]G-NH2 (N-terminus assumed; SMILES Cc1cc(O)cc(C)c1C[C@H](N)C(=O)N[C@H](CCCNC(=N)N)C(=O)N[C@@H](Cc1ccccc1-c1ccc(Cl)cc1)C(=O)NCC(N)=O) [Dmt-D-Arg-Phe(2-(4-Cl-phenyl))-Gly-NH2] | 2.39 nM | 1.63 nM | – | – | – |
| [Dmt][dR][Phe(2-vinyl)]G-NH2 (N-terminus assumed; SMILES C=Cc1ccccc1C[C@H](NC(=O)[C@@H](CCCNC(=N)N)NC(=O)[C@@H](N)Cc1c(C)cc(O)cc1C)C(=O)NCC(N)=O) [Dmt-D-Arg-Phe(2-vinyl)-Gly-NH2] | 0.389 nM | 0.406 nM | 18 nM | 0.47 nM | EPAC DOP EC50 (EPAC cAMP BRET-based biosensor assay) [5]: 7 nM |
| [Dmt][dR][Phe(4-vinyl)]G-NH2 (N-terminus assumed; SMILES C=Cc1ccc(C[C@H](NC(=O)[C@@H](CCCNC(=N)N)NC(=O)[C@@H](N)Cc2c(C)cc(O)cc2C)C(=O)NCC(N)=O)cc1) [Dmt-D-Arg-Phe(4-vinyl)-Gly-NH2] | 24.1 nM | 430 nM | 1420 nM | 1.82 nM | – |
| [Dmt][dR][Phe(2-(3-thienyl))]G-NH2 (N-terminus assumed; SMILES Cc1cc(O)cc(C)c1C[C@H](N)C(=O)N[C@H](CCCNC(=N)N)C(=O)N[C@@H](Cc1ccccc1-c1ccsc1)C(=O)NCC(N)=O) [Dmt-D-Arg-Phe(2-(3-thienyl))-Gly-NH2] | 1.54 nM | 2.75 nM | 625 nM | 1.45 nM | EPAC DOP EC50 (EPAC cAMP BRET-based biosensor assay) [5]: 49 nM |
| [Dmt][dA][Phe(2-Ph)]G-NH2 (N-terminus assumed; SMILES Cc1cc(O)cc(C)c1C[C@H](N)C(=O)N[C@H](C)C(=O)N[C@@H](Cc1ccccc1-c1ccccc1)C(=O)NCC(N)=O) [Dmt-D-Ala-Phe(2-phenyl)-Gly-NH2] | 1.6 nM | 2.6 nM | 19.8 nM | 0.35 nM | – |
| [Dmt][dR]FG-NH2 (N-terminus assumed; SMILES Cc1cc(O)cc(C)c1C[C@H](N)C(=O)N[C@H](CCCNC(=N)N)C(=O)N[C@@H](Cc1ccccc1)C(=O)NCC(N)=O) [Dmt-D-Arg-Phe-Gly-NH2] | 2.26 nM | 0.316 nM | – | – | EPAC DOP EC50 (EPAC cAMP BRET-based biosensor assay) [5]: 1.13 nM |
| [Dmt][dR][Phe(2-(2-methyl-1-propenyl))]G-NH2 (N-terminus assumed; SMILES CC(C)=Cc1ccccc1C[C@H](NC(=O)[C@@H](CCCNC(=N)N)NC(=O)[C@@H](N)Cc1c(C)cc(O)cc1C)C(=O)NCC(N)=O) [Dmt-D-Arg-Phe(2-(2-methyl-1-propenyl)-Gly-NH2] | 0.701 nM | 0.63 nM | 585 nM | 0.57 nM | EPAC DOP EC50 (EPAC cAMP BRET-based biosensor assay) [5]: 19.4 nM |
| [Dmt][dR][Bip]G-NH2 (N-terminus assumed; SMILES Cc1cc(O)cc(C)c1C[C@H](N)C(=O)N[C@H](CCCNC(=N)N)C(=O)N[C@@H](Cc1ccc(-c2ccccc2)cc1)C(=O)NCC(N)=O) [Dmt-D-Arg-Phe(4-phenyl)-Gly-NH2] | – | – | 42.3 nM | 7.08 nM | IC20 (partial agonist) in the mouse vas deferens (MVD) assay [6]: 3090 nM |
| [Dmt][dR][Phe(4-(3-thienyl))]G-NH2 (N-terminus assumed; SMILES Cc1cc(O)cc(C)c1C[C@H](N)C(=O)N[C@H](CCCNC(=N)N)C(=O)N[C@@H](Cc1ccc(-c2ccsc2)cc1)C(=O)NCC(N)=O) [Dmt-D-Arg-Phe(4-(3-thienyl))-Gly-NH2] | – | – | 309 nM | 5.04 nM | IC20 (partial agonist) in the mouse vas deferens (MVD) assay [6]: 3960 nM |
| [Dmt][dR][Phe(3-(3-thienyl))]G-NH2 (N-terminus assumed; SMILES Cc1cc(O)cc(C)c1C[C@H](N)C(=O)N[C@H](CCCNC(=N)N)C(=O)N[C@@H](Cc1cccc(-c2ccsc2)c1)C(=O)NCC(N)=O) [Dmt-D-Arg-Phe(3-(3-thienyl))-Gly-NH2] | 30.4 nM | – | 601 nM | 1.03 nM | IC35 (partial agonist) in the mouse vas deferens (MVD) assay [6]: 52.8 nM |
| [Dmt][dA][Phe(2-vinyl)]G-NH2 (N-terminus assumed; SMILES C=Cc1ccccc1C[C@H](NC(=O)[C@@H](C)NC(=O)[C@@H](N)Cc1c(C)cc(O)cc1C)C(=O)NCC(N)=O) [Dmt-D-Ala-Phe(2-vinyl)-Gly-NH2] | 1.18 nM | 2.81 nM | 8 nM | 0.25 nM | – |
| [Dmt][dR][Phe(2-Ph)]G-NH2 (N-terminus assumed; SMILES Cc1cc(O)cc(C)c1C[C@H](N)C(=O)N[C@H](CCCNC(=N)N)C(=O)N[C@@H](Cc1ccccc1-c1ccccc1)C(=O)NCC(N)=O) [Dmt-D-Arg-Phe(2-phenyl)-Gly-NH2] | 3.47 nM | 6.99 nM | 20.2 nM | 0.54 nM | – |
| [Dmt][dR][Phe(2-(4-F-phenyl))]G-NH2 (N-terminus assumed; SMILES Cc1cc(O)cc(C)c1C[C@H](N)C(=O)N[C@H](CCCNC(=N)N)C(=O)N[C@@H](Cc1ccccc1-c1ccc(F)cc1)C(=O)NCC(N)=O) [Dmt-D-Arg-Phe(2-(4-F-phenyl))-Gly-NH2] | 0.801 nM | 2.95 nM | – | – | – |
| [Dmt][dNMeA][Phe(2-vinyl)]G-NH2 (N-terminus assumed; SMILES C=Cc1ccccc1C[C@H](NC(=O)[C@@H](C)N(C)C(=O)[C@@H](N)Cc1c(C)cc(O)cc1C)C(=O)NCC(N)=O) [Dmt-N-Me-D-Ala-Phe(2-vinyl)-Gly-NH2] | 0.641 nM | 0.689 nM | – | – | – |
| [Dmt][dR][Phe(2-(4-CF3-phenyl))]G-NH2 (N-terminus assumed; SMILES Cc1cc(O)cc(C)c1C[C@H](N)C(=O)N[C@H](CCCNC(=N)N)C(=O)N[C@@H](Cc1ccccc1-c1ccc(C(F)(F)F)cc1)C(=O)NCC(N)=O) [Dmt-D-Arg-Phe(2-(4-CF3-phenyl))-Gly-NH2] | 1.26 nM | 1.78 nM | – | – | EPAC DOP EC50 (EPAC cAMP BRET-based biosensor assay) [5]: 26.8 nM |
| [Dmt][dR][Phe(2-(4-MeO-phenyl))]G-NH2 (N-terminus assumed; SMILES COc1ccc(-c2ccccc2C[C@H](NC(=O)[C@@H](CCCNC(=N)N)NC(=O)[C@@H](N)Cc2c(C)cc(O)cc2C)C(=O)NCC(N)=O)cc1) [Dmt-D-Arg-Phe(2-(4-MeO-phenyl))-Gly-NH2] | 0.901 nM | 5.23 nM | – | – | – |
| [Dmt][dR][Phe(3-vinyl)]G-NH2 (N-terminus assumed; SMILES C=Cc1cccc(C[C@H](NC(=O)[C@@H](CCCNC(=N)N)NC(=O)[C@@H](N)Cc2c(C)cc(O)cc2C)C(=O)NCC(N)=O)c1) [Dmt-D-Arg-Phe(3-vinyl)-Gly-NH2] | 1.43 nM | 9.74 nM | 165 nM | 0.46 nM | – |
| [Dmt][dR][Phe(3-Ph)]G-NH2 (N-terminus assumed; SMILES Cc1cc(O)cc(C)c1C[C@H](N)C(=O)N[C@H](CCCNC(=N)N)C(=O)N[C@@H](Cc1cccc(-c2ccccc2)c1)C(=O)NCC(N)=O) [Dmt-D-Arg-Phe(3-phenyl)-Gly-NH2] | 61.7 nM | – | 269 nM | 0.85 nM | IC40 (partial agonist) in the mouse vas deferens (MVD) assay [6]: 117 nM |
